Data on two molecules can be found in US20090280138A1 (OXFORD BIOMEDICA UK, published 2009).

Assay [1] has as its target T1, MHC class I molecule HLA-A*0201 (iTopia plate-bound monomer) (biotin (bound to streptavidin-coated plate)).
T1 construct: also called A2
In words: iTopia off-rate assay, 37 C; fit R^2 0.83. As to the method: (§1) The 9 mers were tested for Peptide Binding, Off Rate and Affinity using iTopia Epitope Discovery System in accordance with the manufacturer's instructions. Briefly, 96 well microtitre plates coated with MHC molecules representing different MHC alleles are used to identify candidate peptides. […] Determinations are performed in duplicate using an ELISA plate reader and included allele specific positive controls.
(§2) A one-phase exponential decay curve, with a plateau given equal to 0, was generated using GraphPad Prism® software, which calculated the t1/2 and goodness-of-fit, as measured by r², for each peptide.

The target in assay [2] is T2, MHC class I molecule HLA-B*0702 (iTopia plate-bound monomer) (biotin (bound to streptavidin-coated plate)).
T2 construct: Commercial iTopia system; also called B7
Nature of the assay: iTopia off-rate assay, 37 C; fit R^2 0.04. The procedure:
as §1, §2

In assay [3] the target is T3, MHC class I molecule HLA-A*0301 (iTopia plate-bound monomer) (biotin (bound to streptavidin-coated plate)).
T3 construct: also called A3
In words: iTopia off-rate assay, 37 C; fit R^2 0.87. In a few lines:
(§3)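 Nonameric peptides bound to plate-immobilised MHC; half-life estimated by exponential decay fit (one phase, zero plateau).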

In assay [4] the target is T1, MHC class I molecule HLA-A*0201 (iTopia …). Nature of the assay: iTopia off-rate assay, 37 C; fit R^2 0. The procedure:
as §1, §2

The target of assay [5] is T3, MHC class I molecule HLA-A*0301 (iTopia …). Nature of the assay: iTopia off-rate assay, 37 C; fit R^2 0.77. In a few lines:
as §3

As to VLYLNRKGI [5T4 9-mer peptide 187 VLYLNRKGI], the values for the t½ half life in assay [1], in assay [2] and in assay [3] were 0.6 h, 2.9 h and 1.4 h, respectively.
As to LLVLYLNRK (also called Peptide No 186) [5T4 9-mer peptide 186 LLVLYLNRK], the t½ half life in assay [4] was 21.4 h; in assay [5], 3.2 h.
